Blank lines part the entries; values can stand above or below the binder they belong to.
Target: T1, Drosophila septin polypeptide Pnut (Drosophila (endogenous in embryos), UniProt P40797 1-539)
T1 sequence (looked up): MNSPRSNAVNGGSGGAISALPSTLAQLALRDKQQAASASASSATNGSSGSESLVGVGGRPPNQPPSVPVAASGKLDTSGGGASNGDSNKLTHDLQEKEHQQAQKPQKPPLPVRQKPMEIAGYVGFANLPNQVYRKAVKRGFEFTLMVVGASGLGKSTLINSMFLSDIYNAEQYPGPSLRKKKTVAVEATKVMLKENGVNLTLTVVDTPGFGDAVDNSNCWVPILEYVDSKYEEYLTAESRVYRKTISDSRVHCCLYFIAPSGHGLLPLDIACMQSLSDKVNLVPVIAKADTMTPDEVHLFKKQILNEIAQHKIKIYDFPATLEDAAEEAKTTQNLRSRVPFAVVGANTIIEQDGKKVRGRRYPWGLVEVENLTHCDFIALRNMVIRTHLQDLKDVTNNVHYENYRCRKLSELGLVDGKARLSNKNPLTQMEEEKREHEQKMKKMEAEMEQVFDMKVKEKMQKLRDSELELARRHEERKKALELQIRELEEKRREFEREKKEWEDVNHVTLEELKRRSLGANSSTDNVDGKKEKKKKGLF
Assay: co-IP

stoichiometry N: ~1
B1: Drosophila septin polypeptide Sep2 (natural protein, Drosophila (endogenous in embryos), UniProt P54359 1-419, looked up)
chain: MSVEVDFVDKKEVHLRTLKQSGHVGFDSLPDQLVNKSVQNGFVFNVMCIGETGLGKSTLMDTLFNTSFESTPSPHTLPSVKLKAHTYELQESNVRLKLTICDTVGYGDQINKDDSFKAVVDYIDAQFENYLQEELKIKRSLVTCHDSRIHICLYFICPTGHGLKSLDLVCMKKLDSKVNIIPVIAKADTISKVELQRFKAKIIQELNANGVHIYQFPTDDETVAETNTSMNSHIPFAVVGSTEFIKVGNKLIRARQYPWGTVQVENETHCDFVKLREMLIRTNMEDMREKTHTRHYELYRQKRLEQMGFSDVDSDNKPISFQQTFEAKRSNHLAELQSKEEEVRQMFVQRVKEKEAELKESEKDLHAKFEKLKRDHAEEKRKLEESRKALEEDYLDFQRRKQQLATAHHTLTLGKSKKK

stoichiometry N: ~1
B2: Drosophila septin polypeptide Sep1 (natural protein, Drosophila (endogenous in embryos), UniProt P42207 1-361, looked up)
chain: MADTKGFSSIETPGYVGFANLPNQVHRKSVKKGFEFTLMVVGESGLGKSTLVNSLFLTDLYPERIIPDAIEKQKQTVKLEASTVEIEERGVKLRLTVVDTPGFGDAIDNSNSFGAILEYIDEQYERFLRDESGLNRRNIVDNRIHCCFYFISPFGHGLKPLDVEFMKKLHSKVNIVPVIAKADCLTKKEILRLKCRIMQEIESHGIKIYPLPDCDSDEDEDYKEQVKQLKEAVPFAVCGANTLLEVKGKKVRGRLYPWGVVEVENPDHCDFIKLRTMLITHMQDLQEVTQEVHYENYRSDRLAKGIKGKENGVKAERDSSSQVVSNSVLGEKDRILQEKEAELRRMQEMLAQMQARMQAQQ

From PMC2120824 (The Journal of Cell Biology, 1996)
